For five sequences, Kd and IC50 results are on record in the Immune Epitope Database (IEDB).

A value given as a limit tells only on which side of the number the result lay.

Test [1] has as its target HLA-A*02:01. In words: IEDB peptide-MHC binding, purified MHC/competitive/fluorescence; filed as Kd, often an IC50 or EC50 that approximates it; ≥ and ≤ were set here for values at or beyond the usual limits of such assays. To be noted: source organism: Yersinia pseudotuberculosis IP 31758.
Test [2] has as its target HLA-B*27:20. The description is as above.
The target in test [3] is HLA-B*15:42. The description is as above.
For test [4], the target named is HLA-B*83:01. Described as above.
Test [5] deals with HLA-B*45:06. The test is described as above.
The target in test [6] is HLA-C*06:02. The description is as above. To be noted: source organism: Yersinia pseudotuberculosis IP 31758.
Test [7] addresses HLA-B*40:13. Described as above.
The target in test [8] is HLA-A*32:07. The description is as above.
The target of test [9] is HLA-C*15:02. The test can be described thus: IEDB peptide-MHC binding, purified MHC/direct/fluorescence; filed as Kd, often an IC50 or EC50 that approximates it; ≥ and ≤ were set here for values at or beyond the usual limits of such assays. To be noted: source organism: Yersinia pseudotuberculosis IP 31758.
Test [10] deals with HLA-C*14:02. Described as above. The settings on record: source organism: Yersinia pseudotuberculosis IP 31758.
In test [11] the target is HLA-A*01:01. In words: IEDB peptide-MHC binding, purified MHC/competitive/radioactivity; ≥ and ≤ were set here for values at or beyond the usual limits of such assays. To be noted: source organism: Homo sapiens.
Test [12] has as its target HLA-A*01:01. The test can be described thus: IEDB peptide-MHC binding, purified MHC/direct/fluorescence; filed as Kd, often an IC50 or EC50 that approximates it; ≥ and ≤ were set here for values at or beyond the usual limits of such assays.
Test [13] has as its target HLA-B*15:01. Described as above.
The target in test [14] is HLA-A*11:01. The description is as above.
Test [15] concerns the target HLA-C*04:01. In words: IEDB peptide-MHC binding, purified MHC/competitive/fluorescence; filed as Kd, often an IC50 or EC50 that approximates it; ≥ and ≤ were set here for values at or beyond the usual limits of such assays. The settings on record: source organism: Escherichia coli HS.
Test [16] addresses HLA-A*32:15. The test is described as above. The settings on record: source organism: Escherichia coli HS.
Test [17] addresses HLA-C*14:02. The test is described as above. To be noted: source organism: Escherichia coli HS.
In test [18] the target is HLA-B*48:01. The description is as above. The settings on record: source organism: Escherichia coli HS.
In test [19] the target is HLA-C*12:03. The test can be described thus: IEDB peptide-MHC binding, purified MHC/direct/fluorescence; filed as Kd, often an IC50 or EC50 that approximates it; ≥ and ≤ were set here for values at or beyond the usual limits of such assays. To be noted: source organism: Escherichia coli HS.
In test [20] the target is HLA-C*07:02. The description is as above. The settings on record: source organism: Escherichia coli HS.
Test [21] concerns the target HLA-C*03:03. The test is described as above. To be noted: source organism: Escherichia coli HS.
In test [22] the target is HLA-C*06:02. Described as above. The settings on record: source organism: Escherichia coli HS.
The target of test [23] is HLA-A*31:01. In words: IEDB peptide-MHC binding, purified MHC/competitive/fluorescence; filed as Kd, often an IC50 or EC50 that approximates it; ≥ and ≤ were set here for values at or beyond the usual limits of such assays. To be noted: source organism: Shigella flexneri 5 str. 8401.
The target in test [24] is HLA-A*03:01. The description is as above. The settings on record: source organism: Shigella flexneri 5 str. 8401.
For test [25], the target named is HLA-A*68:23. The description is as above. To be noted: source organism: Shigella flexneri 5 str. 8401.
For test [26], the target named is HLA-A*02:50. The test is described as above. The settings on record: source organism: Giardia lamblia ATCC 50803.
Test [27] has as its target HLA-A*02:01. The test can be described thus: IEDB peptide-MHC binding, purified MHC/direct/fluorescence; filed as Kd, often an IC50 or EC50 that approximates it; ≥ and ≤ were set here for values at or beyond the usual limits of such assays. The settings on record: source organism: Giardia lamblia ATCC 50803.
Test [28] concerns the target HLA-A*69:01. The description is as above. To be noted: source organism: Giardia lamblia ATCC 50803.
Test [29] has as its target HLA-B*07:02. The test is described as above. The settings on record: source organism: Giardia lamblia ATCC 50803.
Test [30] has as its target HLA-B*46:01. The test is described as above. The settings on record: source organism: Giardia lamblia ATCC 50803.
Test [31] addresses HLA-A*02:19. Described as above. To be noted: source organism: Giardia lamblia ATCC 50803.
Test [32] has as its target HLA-B*18:01. The description is as above. To be noted: source organism: Giardia lamblia ATCC 50803.
In test [33] the target is HLA-A*24:02. Described as above. The settings on record: source organism: Giardia lamblia ATCC 50803.
Test [34] addresses HLA-A*02:06. The test is described as above. To be noted: source organism: Giardia lamblia ATCC 50803.
The target of test [35] is HLA-B*44:02. The description is as above. To be noted: source organism: Giardia lamblia ATCC 50803.
Test [36] deals with HLA-B*40:01. The test is described as above. To be noted: source organism: Giardia lamblia ATCC 50803.
For test [37], the target named is HLA-B*27:05. The description is as above. To be noted: source organism: Giardia lamblia ATCC 50803.
The target in test [38] is HLA-A*31:01. The test is described as above. To be noted: source organism: Giardia lamblia ATCC 50803.
The target of test [39] is HLA-B*58:01. Described as above. To be noted: source organism: Giardia lamblia ATCC 50803.
For test [40], the target named is HLA-B*08:02. The description is as above. The settings on record: source organism: Giardia lamblia ATCC 50803.
Test [41] deals with HLA-A*02:11. Described as above. The settings on record: source organism: Giardia lamblia ATCC 50803.
Test [42] concerns the target HLA-A*26:01. Described as above. To be noted: source organism: Giardia lamblia ATCC 50803.
In test [43] the target is HLA-A*03:01. Described as above. To be noted: source organism: Giardia lamblia ATCC 50803.
The target in test [44] is HLA-A*02:12. The description is as above. To be noted: source organism: Giardia lamblia ATCC 50803.
Test [45] addresses HLA-A*02:16. The description is as above. To be noted: source organism: Giardia lamblia ATCC 50803.
Setting [46] is: source organism: Yersinia pseudotuberculosis IP 31758.
Setting [47] is: source organism: Escherichia coli HS.
[48] abbreviates: source organism: Shigella flexneri 5 str. 8401.
Setting [49] is: source organism: Giardia lamblia ATCC 50803.

FQWWRSHPL: the equilibrium dissociation constant (Kd) was not above 0.1 nM in test [1]; not above 0.1 nM in test [2] (setting [46]); not below 5000 nM in test [3] (setting [46]); 475 nM in test [4] (setting [46]); not below 5000 nM in test [5] (setting [46]); 837 nM in test [6]. Besides, the Kd in [7] (setting [46]) came out at 1.3 nM; in test [8] (setting [46]) it was 73.6 nM; in test [9] it was 1400 nM; in test [10], 232 nM.

Turning to IVDCLTEMY, in test [11], the half-inhibitory concentration (IC50) came to 7 nM. The equilibrium dissociation constant (Kd) in [12] (source organism: Homo sapiens) is 164 nM; in test [13] (source organism: Homo sapiens), 1090 nM; in test [14] (source organism: Homo sapiens), 2020 nM.

In the case of MMWATAQAL, the Kd in [15] was not below 5000 nM; in test [2] (setting [47]) it was 6.4 nM; in test [3] (setting [47]) it was not below 5000 nM; in [16], 391 nM; in test [4] (setting [47]), not below 5000 nM; in [5] (setting [47]), not below 5000 nM. The equilibrium dissociation constant (Kd) in [17] stood at 6.4 nM; in [7] (setting [47]) it was 212 nM; in test [18], 242 nM; in [8] (setting [47]), 42 nM; in test [19], 1640 nM; in test [20], 572 nM. Also, the dissociation constant Kd in [21] is 337 nM; in [22] it was not below 20000 nM.

Take TTIPTNLFR: the equilibrium dissociation constant (Kd) in test [3] (setting [48]) is not below 5000 nM; in test [4] (setting [48]), not below 5000 nM; in test [5] (setting [48]), not below 5000 nM; in [23], 121 nM; in test [24] it was 3000 nM; in test [25], 332 nM.

For YLDMVLAFL, the equilibrium dissociation constant (Kd) in [26] is not above 0.1 nM; in test [27], 18.5 nM; in test [28] it was not below 20000 nM; in [29], not below 20000 nM; in test [30], not below 20000 nM; in test [12] (setting [49]) it was not below 20000 nM. The dissociation constant (Kd) in test [31] was not above 1 nM; in test [32], not below 20000 nM; in test [33], not below 20000 nM; in test [34] it was not above 1 nM; in [35], not below 20000 nM; in test [36] it was not below 20000 nM. Moreover, the equilibrium dissociation constant (Kd) in test [37] was not below 20000 nM; in test [38], not below 20000 nM; in test [39], not below 20000 nM; in test [40], not below 20000 nM; in [41], not above 1 nM; in [13] (setting [49]), not below 20000 nM. The Kd in test [42] is not below 20000 nM; in [43], not below 20000 nM; in [14] (setting [49]), not below 20000 nM; in test [44] it was not above 1 nM; in test [45], not above 1 nM.
